Numbering of substitutions follows the chain as printed. Numbered stars: 1 amine (or outer) side, 2 acyl side, 3 side chain; on linkers, the order of the positions; unused ones are H or OH. Bridge positions count the residues as written; N and C are the ends. Side chains are listed from the residue outwards. Ends that are not written are not given here. * marks the point of attachment. C20 diacid = O=C(O)CCCCCCCCCCCCCCCCCCC(=O)*; γGlu = O=C(O)[C@H](CCC(=O)[*:2])N[*:1]
B1: N^α1-[2-[2-[2-[[2-[2-[2-[[(4S)-4-carboxy-4-(19-carboxynonadecanoylamino)butanoyl]amino]ethoxy]ethoxy]acetyl]amino]ethoxy]ethoxy]acetyl]-[Glu14,Arg17,Pro21,Pro27 … (peptide)
peptide: KCNTATCATQRLAEFLRHSSPNFGAIPSSTNVGSNTY
modifications: C20 diacid-gGlu-2xOEG on alpha-amino of the N-terminal residue; Cys2-Cys7 disulfide; C-terminal amide (as human amylin)
notes: Acylated analogue of human amylin; also called compound 19
B2: N^α1-[(4S)-4-carboxy-4-(19-carboxynonadecanoylamino)butanoyl]-[Arg17,Pro21,Pro27,Arg34]-h-amylin (peptide)
peptide: B1 peptide with E14N, S34R
modifications: C20 diacid-gGlu on alpha-amino of the N-terminal residue; Cys2-Cys7 disulfide; C-terminal amide (as human amylin)
notes: Acylated analogue of human amylin; also called compound 39
B3: N^α1 N^α1-[(4S)-4-carboxy-4-[[(4S)-4-carboxy-4-(19-carboxynonadecanoylamino)butanoyl]amino]butanoyl]-[Glu14,Arg17,Pro21,Pro27]-h-amylin (peptide)
peptide: {C20 diacid-γGlu-γGlu}-KCNTATCATQRLAEFLRHSSPNFGAIPSSTNVGSNTY-NH2
modifications: disulfide 2-7
SMILES: CC[C@H](C)[C@H](NC(=O)[C@H](C)NC(=O)CNC(=O)[C@H](Cc1ccccc1)NC(=O)[C@H](CC(N)=O)NC(=O)[C@@H]1CCCN1C(=O)[C@H](CO)NC(=O)[C@H](CO)NC(=O)[C@H](Cc1c[nH]cn1)NC(=O)[C@H](CCCNC(=N)N)NC(=O)[C@H](CC(C)C)NC(=O)[C@H](Cc1ccccc1)NC(=O)[C@H](CCC(=O)O)NC(=O)[C@H](C)NC(=O)[C@H](CC(C)C)NC(=O)[C@H](CCCNC(=N)N)NC(=O)[C@H](CCC(N)=O)NC(=O)[C@@H](NC(=O)[C@H](C)NC(=O)[C@@H]1CSSC[C@H](NC(=O)[C@H](CCCCN)NC(=O)CC[C@H](NC(=O)CC[C@H](NC(=O)CCCCCCCCCCCCCCCCCCC(=O)O)C(=O)O)C(=O)O)C(=O)N[C@@H](CC(N)=O)C(=O)N[C@@H]([C@@H](C)O)C(=O)N[C@@H](C)C(=O)N[C@@H]([C@@H](C)O)C(=O)N1)[C@@H](C)O)C(=O)N1CCC[C@H]1C(=O)N[C@@H](CO)C(=O)N[C@@H](CO)C(=O)N[C@H](C(=O)N[C@@H](CC(N)=O)C(=O)N[C@H](C(=O)NCC(=O)N[C@@H](CO)C(=O)N[C@@H](CC(N)=O)C(=O)N[C@H](C(=O)N[C@@H](Cc1ccc(O)cc1)C(N)=O)[C@@H](C)O)C(C)C)[C@@H](C)O
notes: Acylated analogue of human amylin; also called compound 15
B4: N^ε1-[(4S)-4-carboxy-4-[[(4S)-4-carboxy-4-(19-carboxynonadecanoylamino)butanoyl]amino]butanoyl]-[Glu14,Arg17,Pro21,Pro27,Pro37]-h-amylin (peptide)
peptide: K([γGlu-γGlu-C20 diacid])CNTATCATQRLAEFLRHSSPNFGAIPSSTNVGSNTP-NH2
modifications: disulfide 2-7; N-terminus assumed
SMILES: CC[C@H](C)[C@H](NC(=O)[C@H](C)NC(=O)CNC(=O)[C@H](Cc1ccccc1)NC(=O)[C@H](CC(N)=O)NC(=O)[C@@H]1CCCN1C(=O)[C@H](CO)NC(=O)[C@H](CO)NC(=O)[C@H](Cc1c[nH]cn1)NC(=O)[C@H](CCCNC(=N)N)NC(=O)[C@H](CC(C)C)NC(=O)[C@H](Cc1ccccc1)NC(=O)[C@H](CCC(=O)O)NC(=O)[C@H](C)NC(=O)[C@H](CC(C)C)NC(=O)[C@H](CCCNC(=N)N)NC(=O)[C@H](CCC(N)=O)NC(=O)[C@@H](NC(=O)[C@H](C)NC(=O)[C@@H]1CSSC[C@H](NC(=O)[C@@H](N)CCCCNC(=O)CC[C@H](NC(=O)CC[C@H](NC(=O)CCCCCCCCCCCCCCCCCCC(=O)O)C(=O)O)C(=O)O)C(=O)N[C@@H](CC(N)=O)C(=O)N[C@@H]([C@@H](C)O)C(=O)N[C@@H](C)C(=O)N[C@@H]([C@@H](C)O)C(=O)N1)[C@@H](C)O)C(=O)N1CCC[C@H]1C(=O)N[C@@H](CO)C(=O)N[C@@H](CO)C(=O)N[C@H](C(=O)N[C@@H](CC(N)=O)C(=O)N[C@H](C(=O)NCC(=O)N[C@@H](CO)C(=O)N[C@@H](CC(N)=O)C(=O)N[C@H](C(=O)N1CCC[C@H]1C(N)=O)[C@@H](C)O)C(C)C)[C@@H](C)O
notes: also called compound 13
B5: N^ε1-[(4S)--4-carboxy-4-(19-carboxynonadecanoylamino)butanoyl]-[Glu14,Arg17,Pro21,Pro27,Pro37]-h-amylin (peptide)
peptide: K([γGlu-C20 diacid])CNTATCATQRLAEFLRHSSPNFGAIPSSTNVGSNTP-NH2
modifications: disulfide 2-7; N-terminus assumed
SMILES: CC[C@H](C)[C@H](NC(=O)[C@H](C)NC(=O)CNC(=O)[C@H](Cc1ccccc1)NC(=O)[C@H](CC(N)=O)NC(=O)[C@@H]1CCCN1C(=O)[C@H](CO)NC(=O)[C@H](CO)NC(=O)[C@H](Cc1c[nH]cn1)NC(=O)[C@H](CCCNC(=N)N)NC(=O)[C@H](CC(C)C)NC(=O)[C@H](Cc1ccccc1)NC(=O)[C@H](CCC(=O)O)NC(=O)[C@H](C)NC(=O)[C@H](CC(C)C)NC(=O)[C@H](CCCNC(=N)N)NC(=O)[C@H](CCC(N)=O)NC(=O)[C@@H](NC(=O)[C@H](C)NC(=O)[C@@H]1CSSC[C@H](NC(=O)[C@@H](N)CCCCNC(=O)CC[C@H](NC(=O)CCCCCCCCCCCCCCCCCCC(=O)O)C(=O)O)C(=O)N[C@@H](CC(N)=O)C(=O)N[C@@H]([C@@H](C)O)C(=O)N[C@@H](C)C(=O)N[C@@H]([C@@H](C)O)C(=O)N1)[C@@H](C)O)C(=O)N1CCC[C@H]1C(=O)N[C@@H](CO)C(=O)N[C@@H](CO)C(=O)N[C@H](C(=O)N[C@@H](CC(N)=O)C(=O)N[C@H](C(=O)NCC(=O)N[C@@H](CO)C(=O)N[C@@H](CC(N)=O)C(=O)N[C@H](C(=O)N1CCC[C@H]1C(N)=O)[C@@H](C)O)C(C)C)[C@@H](C)O
notes: also called compound 12

Molecular target: T1, rat amylin receptor (rat calcitonin receptor + rat RAMP 3) (rat, UniProt P32214 25-516; Q9JJ73 23-147)
T1 construct: whole, on cells; Cell membranes of transiently transfected BHK tk'ts 13 cells (Assay VI); also called rAmylin-R; rat amylin 3(a) receptor
T1 sequence (looked up) 1: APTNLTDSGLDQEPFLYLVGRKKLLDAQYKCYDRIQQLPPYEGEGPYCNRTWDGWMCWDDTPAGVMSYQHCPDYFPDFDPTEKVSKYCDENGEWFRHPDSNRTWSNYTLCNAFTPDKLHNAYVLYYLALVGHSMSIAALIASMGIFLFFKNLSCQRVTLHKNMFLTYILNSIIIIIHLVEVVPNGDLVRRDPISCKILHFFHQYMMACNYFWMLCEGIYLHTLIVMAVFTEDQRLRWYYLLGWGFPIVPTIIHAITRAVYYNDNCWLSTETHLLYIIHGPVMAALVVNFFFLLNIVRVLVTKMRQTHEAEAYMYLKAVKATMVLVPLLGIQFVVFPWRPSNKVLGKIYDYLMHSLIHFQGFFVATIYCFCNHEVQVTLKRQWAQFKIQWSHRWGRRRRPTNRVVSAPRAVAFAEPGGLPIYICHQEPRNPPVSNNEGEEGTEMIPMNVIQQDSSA
T1 sequence (looked up) 2: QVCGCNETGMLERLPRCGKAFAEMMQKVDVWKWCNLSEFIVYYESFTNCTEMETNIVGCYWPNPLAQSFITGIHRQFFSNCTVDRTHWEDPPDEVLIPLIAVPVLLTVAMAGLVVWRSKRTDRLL
Test: SPA competition vs 125I-rat amylin, membranes with rat CTR + rat RAMP3 (Assay VI)

Binder | IC50
B1 | 1.02 nM
B2 | 1.77 nM

Molecular target: T2, human calcitonin receptor (human, UniProt P30988 25-474)
T2 construct: whole, on cells; Cell membranes of a stably transfected BHK cell line (Assay VII); also called hCTR; hCT
T2 sequence (looked up): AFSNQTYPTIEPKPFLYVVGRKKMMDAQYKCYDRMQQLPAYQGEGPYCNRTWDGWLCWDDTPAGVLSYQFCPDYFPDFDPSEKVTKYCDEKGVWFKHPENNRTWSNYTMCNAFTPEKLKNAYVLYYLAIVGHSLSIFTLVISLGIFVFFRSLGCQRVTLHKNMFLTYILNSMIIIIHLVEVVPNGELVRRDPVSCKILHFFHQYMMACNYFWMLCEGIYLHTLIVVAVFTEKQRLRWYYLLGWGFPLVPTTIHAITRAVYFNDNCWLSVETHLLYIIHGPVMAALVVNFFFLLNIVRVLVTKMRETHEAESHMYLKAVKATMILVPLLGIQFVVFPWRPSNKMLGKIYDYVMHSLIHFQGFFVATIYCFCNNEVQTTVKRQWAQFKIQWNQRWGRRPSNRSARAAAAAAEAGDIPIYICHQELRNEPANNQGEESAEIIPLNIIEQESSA
Test: ratio IC50 human calcitonin receptor / IC50 human amylin receptor
Description: The resulting pellet was resuspended, homogenized and centrifuged (20.000 rpm, 15 min) in a buffer containing 20 mM Na-HEPES and 0.1 mM EDTA (pH 7.4, buffer 2). The resulting pellet was resuspended in buffer 2 and protein concentration was measured (BCA protein Assay, Pierce). The homogenate was kept cold during the whole procedure. The membranes were kept at −80° C. until use. The assay was performed in a 384 well Optiplate (PerkinElmer) in a total volume of 40 ul. Membranes were mixed with SPA beads. Final concentration of membranes 35 ng/μL final and SPA beads was 0.05 mg/well. Test-compounds were dissolved in DMSO and further diluted in assay buffer (50 mM Hepes, pH 7.4, 1 mM CaCl2, 5 mM MgCl₂, 0.1% OA and 0.02% Tween20). […] The final mixture was incubated with shaking at 400 rpm for 120 min at 25° C. prior to centrifugation (1500 rpm, 10 min). Samples were analyzed on TopCounter™ (Packard). The IC₅₀ was calculated using (one site binding competition analysis) GraphPad Prism5 as a measure of receptor affinity.
Membranes were prepared in the following way; the cells were rinsed with PBS and incubated with Versene for approximately 5 min before harvesting. The cells were flushed with PBS and the cell-suspension was centrifuged for 5 min at 1000 rpm. Cells were homogenized (Ultrathurrax) in a buffer containing 20 mM Na-HEPES and 10 mM EDTA (pH 7.4) and centrifuged at 20.000 rpm for 15 min. The resulting pellet was resuspended, homogenized and centrifuged (20.000 rpm, 15 min) in a buffer containing 20 mM Na-HEPES and 0.1 mM EDTA (pH 7.4, buffer 2). The resulting pellet was resuspended in buffer 2 and protein concentration was measured (BCA protein Assay, Pierce). The homogenate was kept cold during the whole procedure. The membranes were kept at −80° C. until use. Assay was performed in a 384 well Optiplate (PerkinElmer) in a total volume of 40 ul. Membranes were mixed with SPA beads.

Binder | Ratio hCT/hAmylin binding
B3 | 26
B1 | 36.7
B2 | 29

Molecular target: T3, human calcitonin receptor (human, UniProt P30988 25-474)
T3 sequence (looked up): T2 sequence (looked up)
Test: cell-based or functional assay

Binder | Ratio hCT/hAmylin funct.
B4 | 2.2 ratio
B5 | 1.8 ratio
{C20 diacid-γGlu}-GRCNTATCATQRLAAFLRHSSPNFGAIPSSTNVGPNTY-NH2 (disulfide 3-8 (inferred)) | 2.1 ratio
{C20 diacid-γGlu}-GRCNTATCATQRLAHFLRHSSPNFGAIPSSTNVGPNTY-NH2 (disulfide 3-8 (inferred)) | 2.9 ratio
{C20 diacid-γGlu}-GRCNTATCATQRLAAFLRHSSPNFGAIPSSTNVGHNTY-NH2 (disulfide 3-8 (inferred)) | 4.9 ratio

Molecular target: T4, human amylin receptor (amylin 3(a) receptor: human calcitonin receptor with RAMP-3) (human, UniProt P30988 25-474; O60896 24-148, limits assumed)
T4 construct: whole, on cells; Whole cells in the luciferase assay (Assay II a); also called hAmylin-R; hAmylinR
T4 sequence (looked up) 1: T2 sequence (looked up)
T4 sequence (looked up) 2: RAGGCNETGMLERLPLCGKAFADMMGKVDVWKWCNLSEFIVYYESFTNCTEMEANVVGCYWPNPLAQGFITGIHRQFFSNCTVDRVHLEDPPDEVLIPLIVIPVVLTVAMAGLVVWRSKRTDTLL
Test: SPA competition binding on membranes of BHK cells with human calcitonin receptor + RAMP-3; displacement of 125I-rat amylin (Assay V)
Method in brief: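 Cell membranes were prepared by homogenisation in Na-HEPES/EDTA buffer, pH 7.4, and stored at −80° C. They were then coupled to SPA beads at 35 ng/μL final and exposed to compounds in assay buffer containing CaCl2, MgCl₂, OA and Tween20. After 120 min at 25° C, plates were counted and IC₅₀ derived.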

Binder | IC50
B4 | 0.264 nM
B5 | 0.142 nM
{C20 diacid-γGlu}-GRCNTATCATQRLAAFLRHSSPNFGAIPSSTNVGPNTY-NH2 (disulfide 3-8 (inferred)) | 0.114 nM
{C20 diacid-γGlu}-GRCNTATCATQRLAHFLRHSSPNFGAIPSSTNVGPNTY-NH2 (disulfide 3-8 (inferred)) | 0.217 nM
{C20 diacid-γGlu}-GRCNTATCATQRLAAFLRHSSPNFGAIPSSTNVGHNTY-NH2 (disulfide 3-8 (inferred)) | 0.426 nM

Molecular target: T5, rat calcitonin receptor (rat, UniProt P32214 25-516)
T5 construct: whole, on cells; Cell membranes of transiently transfected BHK tk'ts 13 cells (Assay VIII); also called rCTR; rCT
T5 sequence (looked up): T1 sequence (looked up) 1
Test: ratio IC50 rat calcitonin receptor / IC50 rat amylin receptor

Binder | Ratio rCT/rAmylin binding
B1 | 93.6
B2 | 54.5

Molecular target: T5, rat calcitonin receptor
Test: SPA competition vs 125I-calcitonin, membranes with rat CTR (Assay VIII)

Binder | IC50
B1 | 95.6 nM
B2 | 96.4 nM

From patent publication US20140087995A1 (published 2014)
